Data taken from patent US10829540.

Target: human P2X4 (human) (UniProt Q99571)
Experiment: cell-based or functional assay

human P2X4 (human), sequence (Q99571 whole entry): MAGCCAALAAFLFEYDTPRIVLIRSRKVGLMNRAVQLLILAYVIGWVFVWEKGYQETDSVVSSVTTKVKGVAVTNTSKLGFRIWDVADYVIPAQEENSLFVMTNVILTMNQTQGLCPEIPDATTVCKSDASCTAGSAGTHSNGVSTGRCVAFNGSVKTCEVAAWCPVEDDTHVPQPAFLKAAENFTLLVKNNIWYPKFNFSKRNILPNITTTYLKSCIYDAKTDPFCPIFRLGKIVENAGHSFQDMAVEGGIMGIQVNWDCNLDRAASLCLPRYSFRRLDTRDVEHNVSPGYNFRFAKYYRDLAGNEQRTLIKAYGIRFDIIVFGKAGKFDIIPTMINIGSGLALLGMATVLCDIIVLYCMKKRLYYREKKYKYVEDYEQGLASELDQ

## isotype control IgG NIP 228 (antibody)
  Fraction of control at human P2X4 (Exp 1), mean, at 7.8 µM; QPatch electrophysiology, ATP-evoked currents (fraction of control): 1.4
  Fraction of control at human P2X4 (Exp 2), mean, at 7.8 µM; QPatch electrophysiology, ATP-evoked currents (fraction of control): 1.36
